This passage reports percent of the initial SpoIVA^AF488 still adsorbed after 72 h of competition with unlabelled SpoIVA, with ATP, percent of the initial SpoIVA^AF488 still adsorbed after 4 h of competition with unlabelled SpoIVA, without ATP and percent of the initial SpoIVA^AF488 still adsorbed after 72 h of competition with unlabelled SpoIVA, without ATP results from paper PMC4396682.

Test [1] addresses SpoVM (synthesized 26-amino-acid peptide), adsorbed on spherical supported lipid bilayers (Bacillus subtilis). Nature of the test: fluorescence microscopy of retention on bead-supported lipid bilayers after competition; 0.006 uM SpoIVA^AF488 adsorbed on SpoVM-SSLBs with 4 mM ATP in buffer A with 10 mM MgCl2; then 5 uM (800-fold excess) unlabelled SpoIVA; followed over time to 72 h.

Test [2] shares this target. Nature of the test: fluorescence microscopy of retention on bead-supported lipid bilayers after competition; 0.006 uM SpoIVA^AF488 adsorbed on SpoVM-SSLBs without ATP in buffer A with 10 mM MgCl2; then 5 uM (800-fold excess) unlabelled SpoIVA; followed over time to 72 h.

Chain of SpoVM (synthesized 26-amino-acid peptide), adsorbed on spherical supported lipid bilayers (Bacillus subtilis) (P37817 whole entry): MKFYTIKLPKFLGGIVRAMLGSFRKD

Substance “SpoIVA^AF488 (His6-tagged cysteine-less SpoIVA variant C98S with a single engineered cysteine at the N terminus, labelled with AlexaFluor 488) (from UniProt P35149 1-492) (natural protein)” had a percent of the initial SpoIVA^AF488 still adsorbed after 72 h of competition with unlabelled SpoIVA, with ATP in test [1] of 81%. In test [2], this substance yielded a percent of the initial SpoIVA^AF488 still adsorbed after 4 h of competition with unlabelled SpoIVA, without ATP of 72% and a percent of the initial SpoIVA^AF488 still adsorbed after 72 h of competition with unlabelled SpoIVA, without ATP of 26%.
